Experiments:
Assay in all cases: holdup assay
Set-up in all cases: key: below the threshold = too weak to quantify, mostly under pKd 3.1 to 4
MAGI1_5, Q96QZ7 = target: MAGI1_5, Q96QZ7
SNTB2, Q13425 = target: T1, SNTB2, Q13425
T1 sequence (Q13425 110-208, limits assumed, looked up): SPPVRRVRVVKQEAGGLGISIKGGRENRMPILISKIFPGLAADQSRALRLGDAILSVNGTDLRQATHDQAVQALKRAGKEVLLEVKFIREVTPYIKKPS

PARD6G, Q9BYG4 = target: T2, PARD6G, Q9BYG4
T2 sequence (Q9BYG4 153-261, limits assumed, looked up): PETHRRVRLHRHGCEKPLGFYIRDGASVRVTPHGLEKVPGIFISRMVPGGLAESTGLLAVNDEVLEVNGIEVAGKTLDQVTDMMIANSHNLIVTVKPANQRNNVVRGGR

SDCBP_1, O00560 = target: SDCBP_1, O00560
Chain of SDCBP_1, O00560 (O00560 111-198): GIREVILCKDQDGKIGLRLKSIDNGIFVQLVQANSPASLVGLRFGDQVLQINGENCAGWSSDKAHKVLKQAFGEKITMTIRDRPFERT

USH1C_1, Q9Y6N9 = target: T3, USH1C_1, Q9Y6N9
T3 sequence (Q9Y6N9 82-179, limits assumed, looked up): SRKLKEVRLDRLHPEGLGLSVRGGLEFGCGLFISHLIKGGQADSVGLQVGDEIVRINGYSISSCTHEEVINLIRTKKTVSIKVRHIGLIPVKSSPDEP

MAGI3_3, Q5TCQ9 = target: MAGI3_3, Q5TCQ9
Chain of MAGI3_3, Q5TCQ9 (Q5TCQ9 572-655): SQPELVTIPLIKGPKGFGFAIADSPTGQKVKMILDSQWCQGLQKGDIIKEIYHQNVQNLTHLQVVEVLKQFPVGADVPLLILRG

MAGI3_6, Q5TCQ9 = target: MAGI3_6, Q5TCQ9
Chain of MAGI3_6, Q5TCQ9 (Q5TCQ9 1014-1103): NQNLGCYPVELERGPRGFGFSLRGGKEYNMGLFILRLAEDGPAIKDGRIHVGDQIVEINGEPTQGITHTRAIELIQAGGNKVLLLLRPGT

NHERF2_1, Q15599 = target: NHERF2_1, Q15599
Chain of NHERF2_1, Q15599 (Q15599 9-91): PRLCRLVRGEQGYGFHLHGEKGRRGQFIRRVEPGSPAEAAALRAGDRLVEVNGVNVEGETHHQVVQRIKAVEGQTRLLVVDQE

Inadl_7, Q8NI35 = target: Inadl_7, Q8NI35
Chain of Inadl_7, Q8NI35 (Q8NI35 1219-1332): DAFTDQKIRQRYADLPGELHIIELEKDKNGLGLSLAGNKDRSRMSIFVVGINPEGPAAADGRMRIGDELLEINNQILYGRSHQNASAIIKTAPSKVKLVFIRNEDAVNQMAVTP

PDZD7_2, Q9H5P4 = target: T4, PDZD7_2, Q9H5P4
T4 sequence (Q9H5P4 205-303, limits assumed, looked up): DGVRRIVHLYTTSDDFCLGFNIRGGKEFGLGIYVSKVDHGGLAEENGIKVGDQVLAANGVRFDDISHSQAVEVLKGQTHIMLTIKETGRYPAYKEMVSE

LMO7, Q8WWI1 = target: LMO7, Q8WWI1
Chain of LMO7, Q8WWI1 (Q8WWI1 1037-1138): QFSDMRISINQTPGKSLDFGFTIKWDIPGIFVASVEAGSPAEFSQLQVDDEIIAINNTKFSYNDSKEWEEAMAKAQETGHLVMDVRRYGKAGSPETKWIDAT

CARD14, Q9BXL6 = target: CARD14, Q9BXL6
Chain of CARD14, Q9BXL6 (Q9BXL6 558-663): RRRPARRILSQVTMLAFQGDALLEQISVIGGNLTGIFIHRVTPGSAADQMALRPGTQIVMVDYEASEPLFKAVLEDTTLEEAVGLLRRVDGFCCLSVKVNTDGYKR

SHROOM3, Q8TF72 = target: T5, SHROOM3, Q8TF72
T5 sequence (Q8TF72 20-120, limits assumed, looked up): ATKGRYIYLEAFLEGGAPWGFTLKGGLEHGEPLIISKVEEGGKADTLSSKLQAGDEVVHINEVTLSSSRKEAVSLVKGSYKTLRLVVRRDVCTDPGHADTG

DLG2_1, Q15700 = target: DLG2_1, Q15700
PTPN13_2, Q12923 = target: PTPN13_2, Q12923
Chain of PTPN13_2, Q12923 (Q12923 1363-1462): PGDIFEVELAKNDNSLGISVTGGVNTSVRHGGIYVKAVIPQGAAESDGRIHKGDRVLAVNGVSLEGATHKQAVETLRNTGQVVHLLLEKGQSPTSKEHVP

PARD3_1, Q8TEW0 = target: PARD3_1, Q8TEW0
Chain of PARD3_1, Q8TEW0 (Q8TEW0 264-372): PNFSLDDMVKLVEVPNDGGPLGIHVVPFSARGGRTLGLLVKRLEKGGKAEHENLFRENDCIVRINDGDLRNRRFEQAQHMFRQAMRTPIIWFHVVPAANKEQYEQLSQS

PDZD2_6, O15018 = target: T6, PDZD2_6, O15018
T6 sequence (O15018 2745-2839, limits assumed, looked up): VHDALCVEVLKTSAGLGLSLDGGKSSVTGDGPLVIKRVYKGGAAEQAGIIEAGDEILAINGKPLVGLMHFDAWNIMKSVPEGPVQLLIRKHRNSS

PDZD2_1, O15018 = target: T7, PDZD2_1, O15018
T7 sequence (O15018 80-192, limits assumed, looked up): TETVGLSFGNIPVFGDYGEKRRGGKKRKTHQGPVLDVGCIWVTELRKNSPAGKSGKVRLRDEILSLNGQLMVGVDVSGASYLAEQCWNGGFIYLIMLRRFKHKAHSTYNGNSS

INTU, Q9ULD6 = target: T8, INTU, Q9ULD6
T8 sequence (Q9ULD6 180-273, limits assumed, looked up): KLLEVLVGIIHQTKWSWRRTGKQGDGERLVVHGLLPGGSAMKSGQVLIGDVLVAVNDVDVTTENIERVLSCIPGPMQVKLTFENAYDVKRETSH

PARD3B_2, Q8TEW8 = target: PARD3B_2, Q8TEW8
Chain of PARD3B_2, Q8TEW8 (Q8TEW8 376-471): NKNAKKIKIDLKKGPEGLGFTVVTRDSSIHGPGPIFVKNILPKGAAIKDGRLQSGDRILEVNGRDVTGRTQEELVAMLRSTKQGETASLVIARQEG

APBA3_2, O96018 = target: T9, APBA3_2, O96018
T9 sequence (O96018 480-570, limits assumed, looked up): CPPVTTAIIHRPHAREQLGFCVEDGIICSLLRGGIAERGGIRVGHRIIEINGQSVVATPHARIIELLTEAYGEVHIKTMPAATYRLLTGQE

AHNAK2, Q8IVF2 = target: AHNAK2, Q8IVF2
Chain of AHNAK2, Q8IVF2 (Q8IVF2 108-193): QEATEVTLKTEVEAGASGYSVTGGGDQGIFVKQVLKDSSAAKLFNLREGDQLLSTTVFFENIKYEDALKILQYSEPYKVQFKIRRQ

RGS3, P49796-9 = target: RGS3, P49796-9
Chain of RGS3, P49796-9 (P49796 other isoform, or with tags, fused parts or gaps): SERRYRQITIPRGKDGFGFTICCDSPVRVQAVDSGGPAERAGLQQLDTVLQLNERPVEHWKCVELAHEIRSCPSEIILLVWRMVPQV

PDZD8, Q8NEN9 = target: T10, PDZD8, Q8NEN9
T10 sequence (Q8NEN9 361-459, limits assumed, looked up): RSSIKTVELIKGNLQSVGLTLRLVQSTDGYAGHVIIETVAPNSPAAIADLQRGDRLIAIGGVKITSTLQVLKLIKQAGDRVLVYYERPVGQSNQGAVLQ

PREX1_1, Q8TCU6 = target: PREX1_1, Q8TCU6
Chain of PREX1_1, Q8TCU6 (Q8TCU6 608-718): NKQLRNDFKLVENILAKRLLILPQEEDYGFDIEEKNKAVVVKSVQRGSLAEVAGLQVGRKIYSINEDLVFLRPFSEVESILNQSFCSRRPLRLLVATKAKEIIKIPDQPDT

NHERF3_2, Q5T2W1 = target: T11, NHERF3_2, Q5T2W1
T11 sequence (Q5T2W1 129-225, limits assumed, looked up): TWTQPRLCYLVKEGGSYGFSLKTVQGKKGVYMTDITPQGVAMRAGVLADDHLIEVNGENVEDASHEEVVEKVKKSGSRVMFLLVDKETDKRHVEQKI

[1] = plain residues with an end cap or a label only (N-terminal biotin on a linker: ttds)
[2] = plain residues with an end cap or a label only (N-terminal biotin on a linker: none)

Chain of MAGI1_5, Q96QZ7 (Q96QZ7 986-1098): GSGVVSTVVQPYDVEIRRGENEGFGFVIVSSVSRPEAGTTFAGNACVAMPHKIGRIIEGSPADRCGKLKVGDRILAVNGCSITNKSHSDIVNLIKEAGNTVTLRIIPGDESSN

In the case of SSLQSLETSV [ATP2B4, P23634], the pKd (MAGI1_5, Q96QZ7; [1]) is reported as 4.66, the pKd (SNTB2, Q13425; [1]) is reported as 4.87 and the pKd (PARD6G, Q9BYG4; [1]) is reported as “below the threshold”. For the same binder, the pKd (SDCBP_1, O00560; [1]) was “below the threshold”, the pKd (USH1C_1, Q9Y6N9; [1]) was “below the threshold” and the pKd (MAGI3_3, Q5TCQ9; [1]) was “below the threshold”. The pKd (MAGI3_6, Q5TCQ9; [1]) was “below the threshold”, the pKd (NHERF2_1, Q15599; [1]) was “below the threshold” and the pKd (Inadl_7, Q8NI35; [1]) was “below the threshold”. For the same binder, the pKd (PDZD7_2, Q9H5P4; [1]) was “below the threshold”, the pKd (LMO7, Q8WWI1; [1]) was 4.5 and the pKd (CARD14, Q9BXL6; [1]) was “below the threshold”. The pKd (SHROOM3, Q8TF72; [1]) was “below the threshold”, the pKd (DLG2_1, Q15700; [1]) was 4.94 and the pKd (PTPN13_2, Q12923; [1]) was 4.45. The pKd (PARD3_1, Q8TEW0; [1]) was “below the threshold”, the pKd (PDZD2_6, O15018; [1]) was “below the threshold” and the pKd (PDZD2_1, O15018; [1]) was “below the threshold”. For the same binder, the pKd (INTU, Q9ULD6; [1]) was “below the threshold”, the pKd (PARD3B_2, Q8TEW8; [1]) was “below the threshold” and the pKd (APBA3_2, O96018; [1]) was 4.21. For the same binder, the pKd (AHNAK2, Q8IVF2; [1]) was “below the threshold”, the pKd (RGS3, P49796-9; [1]) was “below the threshold” and the pKd (PDZD8, Q8NEN9; [1]) was “below the threshold”. For the same binder, the pKd (PREX1_1, Q8TCU6; [1]) was “below the threshold” and the pKd (NHERF3_2, Q5T2W1; [1]) was “below the threshold”.

With SGSRPSATVV [HPV73-E6, Q82005] the pKd (MAGI1_5, Q96QZ7; [1]) was 4.11, the pKd (SNTB2, Q13425; [1]) was 4.13 and the pKd (PARD6G, Q9BYG4; [1]) was “below the threshold”. For the same binder, the pKd (SDCBP_1, O00560; [1]) was “below the threshold”, the pKd (USH1C_1, Q9Y6N9; [1]) was “below the threshold” and the pKd (MAGI3_3, Q5TCQ9; [1]) was “below the threshold”. For the same binder, the pKd (MAGI3_6, Q5TCQ9; [1]) was “below the threshold”, the pKd (NHERF2_1, Q15599; [1]) was “below the threshold” and the pKd (Inadl_7, Q8NI35; [1]) was “below the threshold”. For the same binder, the pKd (PDZD7_2, Q9H5P4; [1]) was “below the threshold”, the pKd (LMO7, Q8WWI1; [1]) was “below the threshold” and the pKd (CARD14, Q9BXL6; [1]) was 4.12. For the same binder, the pKd (SHROOM3, Q8TF72; [1]) was “below the threshold”, the pKd (DLG2_1, Q15700; [1]) was “below the threshold” and the pKd (PTPN13_2, Q12923; [1]) was “below the threshold”. For the same binder, the pKd (PARD3_1, Q8TEW0; [1]) was “below the threshold”, the pKd (PDZD2_6, O15018; [1]) was “below the threshold” and the pKd (PDZD2_1, O15018; [1]) was “below the threshold”. The pKd (INTU, Q9ULD6; [1]) was 4.58, the pKd (PARD3B_2, Q8TEW8; [1]) was 4.24 and the pKd (APBA3_2, O96018; [1]) was “below the threshold”. The pKd (AHNAK2, Q8IVF2; [1]) was “below the threshold”, the pKd (RGS3, P49796-9; [1]) was “below the threshold” and the pKd (PDZD8, Q8NEN9; [1]) was 4.04. The pKd (PREX1_1, Q8TCU6; [1]) was “below the threshold” and the pKd (NHERF3_2, Q5T2W1; [1]) was “below the threshold”.

In the case of RLPKIKETTV [FRMPD4, Q14CM0], the pKd (MAGI1_5, Q96QZ7; [1]) is reported as 4.5, the pKd (SNTB2, Q13425; [1]) is reported as 5.36 and the pKd (PARD6G, Q9BYG4; [1]) is reported as “below the threshold”. For the same binder, the pKd (SDCBP_1, O00560; [1]) was “below the threshold”, the pKd (USH1C_1, Q9Y6N9; [1]) was “below the threshold” and the pKd (MAGI3_3, Q5TCQ9; [1]) was “below the threshold”. For the same binder, the pKd (MAGI3_6, Q5TCQ9; [1]) was “below the threshold”, the pKd (NHERF2_1, Q15599; [1]) was “below the threshold” and the pKd (Inadl_7, Q8NI35; [1]) was “below the threshold”. For the same binder, the pKd (PDZD7_2, Q9H5P4; [1]) was “below the threshold”, the pKd (LMO7, Q8WWI1; [1]) was 4.45 and the pKd (CARD14, Q9BXL6; [1]) was “below the threshold”. For the same binder, the pKd (SHROOM3, Q8TF72; [1]) was “below the threshold”, the pKd (DLG2_1, Q15700; [1]) was 5.32 and the pKd (PTPN13_2, Q12923; [1]) was 4.31. For the same binder, the pKd (PARD3_1, Q8TEW0; [1]) was “below the threshold”, the pKd (PDZD2_6, O15018; [1]) was “below the threshold” and the pKd (PDZD2_1, O15018; [1]) was “below the threshold”. For the same binder, the pKd (INTU, Q9ULD6; [1]) was “below the threshold”, the pKd (PARD3B_2, Q8TEW8; [1]) was “below the threshold” and the pKd (APBA3_2, O96018; [1]) was 4.47. The pKd (AHNAK2, Q8IVF2; [1]) was “below the threshold”, the pKd (RGS3, P49796-9; [1]) was “below the threshold” and the pKd (PDZD8, Q8NEN9; [1]) was “below the threshold”. The pKd (PREX1_1, Q8TCU6; [1]) was 4.75 and the pKd (NHERF3_2, Q5T2W1; [1]) was “below the threshold”.

In the case of NLNSSRVPDLLV [SARS-CoV2-E, P0DTC4], the pKd (MAGI1_5, Q96QZ7; [2]) is reported as “below the threshold”, the pKd (SNTB2, Q13425; [2]) is reported as “below the threshold” and the pKd (PARD6G, Q9BYG4; [2]) is reported as “below the threshold”. For the same binder, the pKd (SDCBP_1, O00560; [2]) was “below the threshold”, the pKd (USH1C_1, Q9Y6N9; [2]) was “below the threshold” and the pKd (MAGI3_3, Q5TCQ9; [2]) was “below the threshold”. For the same binder, the pKd (MAGI3_6, Q5TCQ9; [2]) was “below the threshold”, the pKd (NHERF2_1, Q15599; [2]) was “below the threshold” and the pKd (Inadl_7, Q8NI35; [2]) was “below the threshold”. For the same binder, the pKd (PDZD7_2, Q9H5P4; [2]) was “below the threshold”, the pKd (LMO7, Q8WWI1; [2]) was “below the threshold” and the pKd (CARD14, Q9BXL6; [2]) was “below the threshold”. For the same binder, the pKd (SHROOM3, Q8TF72; [2]) was “below the threshold”, the pKd (DLG2_1, Q15700; [2]) was “below the threshold” and the pKd (PTPN13_2, Q12923; [2]) was “below the threshold”. The pKd (PARD3_1, Q8TEW0; [2]) was “below the threshold”, the pKd (PDZD2_6, O15018; [2]) was 4.07 and the pKd (PDZD2_1, O15018; [2]) was “below the threshold”. The pKd (INTU, Q9ULD6; [2]) was “below the threshold”, the pKd (PARD3B_2, Q8TEW8; [2]) was “below the threshold” and the pKd (APBA3_2, O96018; [2]) was “below the threshold”. For the same binder, the pKd (AHNAK2, Q8IVF2; [2]) was “below the threshold”, the pKd (RGS3, P49796-9; [2]) was “below the threshold” and the pKd (PDZD8, Q8NEN9; [2]) was “below the threshold”. The pKd (PREX1_1, Q8TCU6; [2]) was “below the threshold” and the pKd (NHERF3_2, Q5T2W1; [2]) was “below the threshold”.
